The nanobody polyreactivity screen of Harvey et al. (2022)

Assay: yeast display, Sf9 membrane polyspecificity reagent, FACS + sequencing; frameworks hold sequencing errors
How it was run: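 Genes from sorted yeast were amplified by colony PCR, read by MiSeq 2 × 250 sequencing and filtered on CDR length. These cells carried a synthetic nanobody library in Saccharomyces cerevisiae BJ5465 and were sorted by FACS into low and high (top ~1%) gates on anti-HA and streptavidin fluorescence. Polyreactivity is labelled according to the gate of origin.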

Sequence | polyreactivity (PSR sort gate)
QVQLVESGGGLVQAGCSLRLSCAASGFTFIQYAMGWYRPAPGKERELVAAITRSGGRTYYADSVKGRFTISRDNAKNTVYLQMNSLKPEDTAVYYCNAVSRIYPGDEFGYWGQGTQVTVSS | high polyreactivity
QVQIVESGGRLVQAGCSLRLSCAASGRIFTRYAMGWYRQAPGKERELVASIRHSGGSTYYADSVKGRFTISRDNAKNTVYLQMNSLKPEDTAVYYCAARGKKGTRYNYNYWGHGTQVTVSS | high polyreactivity
QVQLVESGGGLVQAGGSLRISCAASGNAMGWYRQAPGKERELVAVITGGGSTYYADSVKGRFTISRDNAKNTVYLQMNSLKPEDTAVYYCAAKGPYYKSSRTGDYWGQGTQVTVSS | low polyreactivity
QVQLVESGGGLVQAGGSLRLSCAASGSTFLDYDMGWYRQAPGKERELVATINSVGSTYYADSVKGRFTISRDNAKNTVYLQMKSLKPEDTAVYYCAASQEPGWYPDVWWEYDYWGQGTQVTVSS | low polyreactivity
QVQLVESGGGLVQAGGSLRLSCAASGITFYRYAMGWYRQAPGKEREFVAAINYGGSSTRYADSVKGRFTISRDNAKNTVYLQMNCLKPEDTAVYYCAVEKRYPRRRYDYWGQGTQVTVSS | low polyreactivity
QVQLVESGGGLVQAGGSLRLSCAASGLTFSYYAMGWYRQAPGKERELVAAITRSGTRTYYADSVKGRFTISRDNAKNTVYLQMNSLKPVDTAVYYCARYLRGDFQQGEHWGQGTQVTVSS | high polyreactivity
QVQLVESGGGLVQAGGSLRLSCAASGITFSYNARGWYRQAPGKERELVAAIRVGDGSTYYADSVKGRFTISRDNAKNTVYLQMHSLKPEDTAVYYWNARYLRLRYPYTDEYNYWGQGTQVTVSS | low polyreactivity
QVQLEESGGGLVQAGGSLRLSCAPSGRIYNRNAMGWYRQAPGKERELVASISSGGRTNYADSVKGRFTISRDNAKTTVYLQMNSLKPEDTAVFYCAGNSPRFLLDYWGQGTQVTVSS | low polyreactivity
QVQLVESGGGLVQAGGSLRLSCAASGSTFEYNAMGWYRQAPGKERELVASSTNYADSVKGRFTISRDNAKNTVYLQMNSLKPEDTAVYYCAKTYWYPYGYWGQGTQVTVSS | low polyreactivity
QVQLVESGGGLVQAGGSLRLSCAASGSIFGGYTMGWYRQAPGKERELVAAISRRGGNTYYADSVKGRFTISRDNAKNTVYLQMNSLKPEDTAVYYCNARPTTYNYDYWGQGTQVTVSS | high polyreactivity
QVQLVESGGGLVQAGGSLRLSCAASGRIYRGYAMGWYRQAPRKERELFARITSGGRTYYADSVKGRFTISRDNAMNTVYLQMISLKPEDTAVYYCATVGGGYDERHNYWGQWTQVTVSS | high polyreactivity
QVQLVESGGGLVQAGGSLRLSCAASGFTFDGYAMGWDRQAPGKERELVAAISGGGSTYYADSVKGRFTISRDNAKNTVYLQMNSLKPEDTAVYYCAVVYRYRTRSRSYFLPFDYWGQGTQVTVSS | high polyreactivity
QVQLVESGGGLVQSGGSLRLSCAASGRIFDENAMGWYRQAPGKERELVAAITGGDSTNYADSVKGRFTISRDNAKNTVYLQMNSLKPEDTAVYYCAVDVIYYWAEDYDYWGQGTQVTVSS | low polyreactivity
QVQLVESGGGLVQAGGSLRLSCAASGSTFILNYMGWYRQAPGKERELVAAIDWGDSTTYYADSVKGRFTISRDNAKNTVYLQMNSLKPEDTAVYYCAADFAVSAFTRYPPTEYWGQGTQVTVSS | high polyreactivity
QGQLVESGGGLVQAGGSLRLSCAASGRTFFNNVMGWYRQAPGKERELVAAISKSGTRTYYADSVKGRFTISRDNAKNTVYLQMNSVKPEDTAVYYCATGQYLRTSRYYYWGHGTQVTVSS | high polyreactivity
QVQLLESGGGLVQAGGSLRLRCAASGTIFRISYMGSYRHAPGKEREFVAAITYCANTYYADSGKGRFTISRDNAKKTVYLHMNSLKPEDTAVYYCAVPPVKETFLDYWGQGTQVTVSS | low polyreactivity
QVQLVESGGGLVQAGGSLRLSCAASGLTFGTYAMGWYRQAPGKERELVAAISGTGGTTYYADSVKGRFTISRDNAKNTVYLKMNSLKPEDTAVYYCNKRWRRPYPYDYWGQGTQVTVSS | high polyreactivity
